Assay [1] deals with GPC3ΔGPI-FLAG重组蛋白 (Homo sapiens (Human)) (UniProt P51654). Description: ELISA on coated GPC3ΔGPI-FLAG after 2 h treatment of the antibody at pH 2.
For assay [2] the target is unchanged. Kind of assay: ELISA on coated GPC3ΔGPI-FLAG after 2 h treatment of the antibody at pH 10. On the technique in general: In an ELISA, binding on a coated surface is turned into a signal by an enzyme label.
Assay [3] concerns the target mCherry-GPC3 (on stably expressing HEK293T cells) (UniProt P51654). Kind of assay: immunofluorescence colocalisation on HEK293T cells expressing mCherry-GPC3.

In assay [1], HN3-hFc融合抗体 (Fc fusion) came in with a 抗原结合能力下降 (A450 against pH 7), antibody treated at pH 2 of 47.9%. This molecule also had a 抗原结合能力下降 (A450 against pH 7), antibody treated at pH 10 in assay [2] of 28.2%.

B1: 纳米抗体G10 (G10-His, GPC3 nanobody) (VHH, not shown: small tags and cut ends)
VHH: QVQLVESGGALVQPGGSLRLSCAASGMTGIFWRLRWYRQAPGKEREWVCGISQLPTPASYEDSVKGRFTCSRDDARNTVYLQLNSLKPEDTAVYYCAAANVLPGLPAELPIYWGQGTQVTVSS
The molecule B1 came in with a 抗原结合能力下降 (A450 against pH 7), antibody treated at pH 2 in assay [1] of 26.1%. In addition, the 皮尔森相关系数 (Pearson correlation of mCherry and Alexa Fluor 488 signals) in assay [3] worked out at 0.94. In addition, the 抗原结合能力下降 (A450 against pH 7), antibody treated at pH 10 in assay [2] was determined as 14.4%.

Values taken from CN111848803A.
